What all share (type): biochemical, Methanothermobacter marburgensis
Substrate in data set [1]: NC(=O)C1=CN([C@@H]2O[C@H](COP(=O)(O)OP(=O)(O)OC[C@H]3O[C@@H](n4cnc5c(N)ncnc54)[C@H](O)[C@@H]3O)[C@@H](O)[C@H]2O)C=CC1
The data set is described as follows: purified protein. The conditions noted are these: 1 mM coenzyme Q1 as acceptor, 50 mM Mops pH 7.4, 30°C.

Substrate in data set [2]: NC(=O)C1=CN([C@@H]2O[C@H](COP(=O)(O)OP(=O)(O)OC[C@H]3O[C@@H](n4cnc5c(N)ncnc54)[C@H](OP(=O)(O)O)[C@@H]3O)[C@@H](O)[C@H]2O)C=CC1
Kind of data set: purified protein. The conditions noted are these: 1 mM coenzyme Q1 as acceptor, 50 mM Mops pH 7.4, 30°C.

Substrate in data set [3]: CN(C)c1ccc(N=Nc2ccccc2C(=O)O)cc1
The data set is described as follows: reduction with electron donor, absorbance. The conditions noted are these: electron acceptor, donor not stated (presumably NADH), varied substrate not stated, general method varies the donor, 50 mM Mops pH 7.4, 30°C.

B1: MmNQO (Methanothermobacter marburgensis str. Marburg) (protein)
chain: MHVYILFAHPSRKSFSREVLEAFTEGLSEAGHTYEVGDLYRMNFRSELSQEEYLREISQEAGSPLPEDVMEEHERIGRADALAFIYPLWWSDCPAKLKGWFDRVWTYGYAYFYEDGERGTRIDIEKAVVLCSAGHTEEDLEGTGIAESMRSVMLGDRLLGVGVKNVTMEILGGMVPGDDSCREINLMRARRAGRNL
notes: full length 196 residues, N-terminal MAS added, non-cleavable C-terminal His6 tag (EHHHHHH) kept; pET21, E. coli BL21(DE3); 23538 Da; homodimer with FMN
Broadly, the Km is the concentration of substrate that gives half-maximal velocity. As a reminder, the kcat is the number of substrate molecules converted per active site and unit of time at saturation. The kcat/Km is the second-order rate constant that governs catalysis at low substrate concentration. On to B1, for which, in the data set “purified protein [1]”, the Km turned out to be 96.8 µM, the kcat worked out at 0.26 s⁻¹ and the kcat/Km was found to be 2680 M⁻¹ s⁻¹. In “purified protein [2]”, the Km was 111.6 µM, the kcat was determined as 0.243 s⁻¹ and the kcat/Km stood at 2170 M⁻¹ s⁻¹. In data set [3], the Km was found to be 683 µM and the kcat turned out to be 0.106 s⁻¹.

The record behind these values is publication PMC4274662, “A novel cytosolic NADH:quinone oxidoreductase from Methanothermobacter marburgensis” (Bioscience Reports, 2014).
